Assay results: patent US20110028686A1 (published 2011)
Square brackets hold non-standard residues; d marks the D form. Ends that are not written are not given here. * marks the point of attachment. Fluorescein(5-NHCOCH2) = O=C(C*)Nc1ccc2c(c1)C(=O)OC21c2ccc(O)cc2Oc2cc(O)ccc21; pS = N[C@@H](COP(=O)(O)O)C(=O)O

Assays:
HisKIX [1] = molecular target: T1, HisKIX (UniProt P45481 586-672); experiment: FP, fluorescein-labelled peptide titrated with HisKIX, 25 C
T1 construct: range 586-672; the residue numbers fit mouse CBP; also called His-tagged CBP KIX domain; CBP KIX; not shown: amino-terminal hexahistidine tag and linker of pET15b
T1 sequence (P45481 586-672): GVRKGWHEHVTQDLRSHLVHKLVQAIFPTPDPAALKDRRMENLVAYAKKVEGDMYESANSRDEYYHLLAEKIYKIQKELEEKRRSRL

HisKIX [2] = molecular target: T1, HisKIX; experiment: FP with HisKIX
HisKIX [3] = molecular target: T1, HisKIX; experiment: FP with HisKIX; end of the range assigned by Table 1

B1: PPKID5^P (designed binder)
peptide: GLSWPTYHGDDAPVRRL[pS]FFYILLDLYLDAPGVC(Fluorescein(5-NHCOCH2))-NH2
modifications: N-terminus assumed
SMILES: CC[C@H](C)[C@H](NC(=O)[C@H](Cc1ccc(O)cc1)NC(=O)[C@H](Cc1ccccc1)NC(=O)[C@H](Cc1ccccc1)NC(=O)[C@H](COP(=O)(O)O)NC(=O)[C@H](CC(C)C)NC(=O)[C@H](CCCNC(=N)N)NC(=O)[C@H](CCCNC(=N)N)NC(=O)[C@@H](NC(=O)[C@@H]1CCCN1C(=O)[C@H](C)NC(=O)[C@H](CC(=O)O)NC(=O)[C@H](CC(=O)O)NC(=O)CNC(=O)[C@H](Cc1c[nH]cn1)NC(=O)[C@H](Cc1ccc(O)cc1)NC(=O)[C@@H](NC(=O)[C@@H]1CCCN1C(=O)[C@H](Cc1c[nH]c2ccccc12)NC(=O)[C@H](CO)NC(=O)[C@H](CC(C)C)NC(=O)CN)[C@@H](C)O)C(C)C)C(=O)N[C@@H](CC(C)C)C(=O)N[C@@H](CC(C)C)C(=O)N[C@@H](CC(=O)O)C(=O)N[C@@H](CC(C)C)C(=O)N[C@@H](Cc1ccc(O)cc1)C(=O)N[C@@H](CC(C)C)C(=O)N[C@@H](CC(=O)O)C(=O)N[C@@H](C)C(=O)N1CCC[C@H]1C(=O)NCC(=O)N[C@H](C(=O)N[C@@H](CSCC(=O)Nc1ccc2c(c1)C(=O)OC21c2ccc(O)cc2Oc2cc(O)ccc21)C(N)=O)C(C)C
notes: also called PPKID5 (phosphorylated)
B1 showed a Kd (HisKIX [1]) of 0.534 µM.

B2: PPKID4^U (designed binder)
peptide: GPSQPTYPGDDAPVRRLSFFYILLDLYLDAPGVC(Fluorescein(5-NHCOCH2))-NH2
modifications: N-terminus assumed
SMILES: CC[C@H](C)[C@H](NC(=O)[C@H](Cc1ccc(O)cc1)NC(=O)[C@H](Cc1ccccc1)NC(=O)[C@H](Cc1ccccc1)NC(=O)[C@H](CO)NC(=O)[C@H](CC(C)C)NC(=O)[C@H](CCCNC(=N)N)NC(=O)[C@H](CCCNC(=N)N)NC(=O)[C@@H](NC(=O)[C@@H]1CCCN1C(=O)[C@H](C)NC(=O)[C@H](CC(=O)O)NC(=O)[C@H](CC(=O)O)NC(=O)CNC(=O)[C@@H]1CCCN1C(=O)[C@H](Cc1ccc(O)cc1)NC(=O)[C@@H](NC(=O)[C@@H]1CCCN1C(=O)[C@H](CCC(N)=O)NC(=O)[C@H](CO)NC(=O)[C@@H]1CCCN1C(=O)CN)[C@@H](C)O)C(C)C)C(=O)N[C@@H](CC(C)C)C(=O)N[C@@H](CC(C)C)C(=O)N[C@@H](CC(=O)O)C(=O)N[C@@H](CC(C)C)C(=O)N[C@@H](Cc1ccc(O)cc1)C(=O)N[C@@H](CC(C)C)C(=O)N[C@@H](CC(=O)O)C(=O)N[C@@H](C)C(=O)N1CCC[C@H]1C(=O)NCC(=O)N[C@H](C(=O)N[C@@H](CSCC(=O)Nc1ccc2c(c1)C(=O)OC21c2ccc(O)cc2Oc2cc(O)ccc21)C(N)=O)C(C)C
notes: also called PPKID4 (unphosphorylated)
B2 showed a Kd (HisKIX [1]) of 12.1 µM.

B3: PPKID6 S18E (designed binder)
peptide: GISWPTFEGDDAPVRRLEFFYILLDLYLDAPGVC(Fluorescein(5-NHCOCH2))-NH2
modifications: N-terminus assumed
SMILES: CC[C@H](C)[C@H](NC(=O)CN)C(=O)N[C@@H](CO)C(=O)N[C@@H](Cc1c[nH]c2ccccc12)C(=O)N1CCC[C@H]1C(=O)N[C@H](C(=O)N[C@@H](Cc1ccccc1)C(=O)N[C@@H](CCC(=O)O)C(=O)NCC(=O)N[C@@H](CC(=O)O)C(=O)N[C@@H](CC(=O)O)C(=O)N[C@@H](C)C(=O)N1CCC[C@H]1C(=O)N[C@H](C(=O)N[C@@H](CCCNC(=N)N)C(=O)N[C@@H](CCCNC(=N)N)C(=O)N[C@@H](CC(C)C)C(=O)N[C@@H](CCC(=O)O)C(=O)N[C@@H](Cc1ccccc1)C(=O)N[C@@H](Cc1ccccc1)C(=O)N[C@@H](Cc1ccc(O)cc1)C(=O)N[C@H](C(=O)N[C@@H](CC(C)C)C(=O)N[C@@H](CC(C)C)C(=O)N[C@@H](CC(=O)O)C(=O)N[C@@H](CC(C)C)C(=O)N[C@@H](Cc1ccc(O)cc1)C(=O)N[C@@H](CC(C)C)C(=O)N[C@@H](CC(=O)O)C(=O)N[C@@H](C)C(=O)N1CCC[C@H]1C(=O)NCC(=O)N[C@H](C(=O)N[C@@H](CSCC(=O)Nc1ccc2c(c1)C(=O)OC21c2ccc(O)cc2Oc2cc(O)ccc21)C(N)=O)C(C)C)[C@@H](C)CC)C(C)C)[C@@H](C)O
With B3 the “fold decrease in affinity against PPKID6^U” value (HisKIX [2]) was 7 fold, the “ΔΔG relative to PPKID6^U” value (HisKIX [2]) was 5.02 kJ/mol and the Kd (HisKIX [1]) was 10.9 µM.

B4: PPKID8^U (designed binder)
peptide: GLSWKTDPGDDAPVRRLSFFYILLDLYLDAPGVC(Fluorescein(5-NHCOCH2))-NH2
modifications: N-terminus assumed
SMILES: CC[C@H](C)[C@H](NC(=O)[C@H](Cc1ccc(O)cc1)NC(=O)[C@H](Cc1ccccc1)NC(=O)[C@H](Cc1ccccc1)NC(=O)[C@H](CO)NC(=O)[C@H](CC(C)C)NC(=O)[C@H](CCCNC(=N)N)NC(=O)[C@H](CCCNC(=N)N)NC(=O)[C@@H](NC(=O)[C@@H]1CCCN1C(=O)[C@H](C)NC(=O)[C@H](CC(=O)O)NC(=O)[C@H](CC(=O)O)NC(=O)CNC(=O)[C@@H]1CCCN1C(=O)[C@H](CC(=O)O)NC(=O)[C@@H](NC(=O)[C@H](CCCCN)NC(=O)[C@H](Cc1c[nH]c2ccccc12)NC(=O)[C@H](CO)NC(=O)[C@H](CC(C)C)NC(=O)CN)[C@@H](C)O)C(C)C)C(=O)N[C@@H](CC(C)C)C(=O)N[C@@H](CC(C)C)C(=O)N[C@@H](CC(=O)O)C(=O)N[C@@H](CC(C)C)C(=O)N[C@@H](Cc1ccc(O)cc1)C(=O)N[C@@H](CC(C)C)C(=O)N[C@@H](CC(=O)O)C(=O)N[C@@H](C)C(=O)N1CCC[C@H]1C(=O)NCC(=O)N[C@H](C(=O)N[C@@H](CSCC(=O)Nc1ccc2c(c1)C(=O)OC21c2ccc(O)cc2Oc2cc(O)ccc21)C(N)=O)C(C)C
For B4, the “fold enhancement in affinity over KID-AB^U” value (HisKIX [3]) was no less than 37 fold, the “fold enhancement in affinity over KID-B^U” value (HisKIX [3]) was no less than 96 fold and the “fold enhancement in affinity over peptide C^U” value (HisKIX [3]) was 7 to 14 fold. For the same binder, the Kd (HisKIX [1]) was 3.1 µM.

With GASDMTYWGDDAPVRRL[pS]FFYILLDLYLDAPGVC(Fluorescein(5-NHCOCH2))-NH2 (designed binder, also called PPKID1 (phosphorylated)) [PPKID1^P] the “fold enhancement in affinity upon phosphorylation” value (HisKIX [3]) was 6 to 41 fold, the “fold higher affinity than KID-B^P” value (HisKIX [3]) was 43 to 87 fold and the ΔΔG upon phosphorylation (HisKIX [3]) was -9.2 kJ/mol. It also gave a Kd (HisKIX [1]) of 0.591 µM.

GASDMTYWGDDAPVRRLSFFYILLDLYLDAPGVC(acetamidofluorescein)-NH2 (designed binder, also called PPKID1 (unphosphorylated)) [PPKID1^U] was tested, and the “fold change in affinity against peptide C^U” value (HisKIX [3]) was 1 to 3 fold, the “ΔΔG relative to peptide C^U” value (HisKIX [3]) was 0.418 kJ/mol and the Kd (HisKIX [1]) was 24.1 µM.

With H-GMSRVTPGGDDAPVRRL[pS]FFYILRDLYLDAPGVC(Fluorescein(5-NHCOCH2))-NH2 (designed binder, not fully specified, also called PPKID2 (phosphorylated)) [PPKID2^P] the Kd (HisKIX [1]) was 0.729 µM.

GMSRVTPGGDDAPVRRLSFFYILRDLYLDAPGVC(acetamidofluorescein)-NH2 (designed binder, not fully specified, also called PPKID2 (unphosphorylated)) [PPKID2^U] was tested, and the Kd (HisKIX [1]) was 12.6 µM.

H-GASPHTSSGDDAPVRRL[pS]FFDILLDLYLDAPGVC(Fluorescein(5-NHCOCH2))-NH2 (designed binder, not fully specified, also called PPKID3 (phosphorylated)) [PPKID3^P] was tested, and the “fold enhancement in affinity upon phosphorylation” value (HisKIX [3]) was 6 to 41 fold, the “fold higher affinity than KID-B^P” value (HisKIX [3]) was 43 to 87 fold and the ΔΔG upon phosphorylation (HisKIX [3]) was -4.18 kJ/mol. It also gave a Kd (HisKIX [1]) of 1.2 µM.

GASPHTSSGDDAPVRRLSFFDILLDLYLDAPGVC(acetamidofluorescein)-NH2 (designed binder, not fully specified, also called PPKID3 (unphosphorylated)) [PPKID3^U] was tested, and the “fold change in affinity against peptide C^U” value (HisKIX [3]) was 1 to 3 fold, the “ΔΔG relative to peptide C^U” value (HisKIX [3]) was -2.93 kJ/mol and the Kd (HisKIX [1]) was 6.7 µM.

B5: PPKID5^U (designed binder)
peptide: GLSWPTYHGDDAPVRRLSFFYILLDLYLDAPGVC(Fluorescein(5-NHCOCH2))-NH2
modifications: N-terminus assumed
SMILES: CC[C@H](C)[C@H](NC(=O)[C@H](Cc1ccc(O)cc1)NC(=O)[C@H](Cc1ccccc1)NC(=O)[C@H](Cc1ccccc1)NC(=O)[C@H](CO)NC(=O)[C@H](CC(C)C)NC(=O)[C@H](CCCNC(=N)N)NC(=O)[C@H](CCCNC(=N)N)NC(=O)[C@@H](NC(=O)[C@@H]1CCCN1C(=O)[C@H](C)NC(=O)[C@H](CC(=O)O)NC(=O)[C@H](CC(=O)O)NC(=O)CNC(=O)[C@H](Cc1c[nH]cn1)NC(=O)[C@H](Cc1ccc(O)cc1)NC(=O)[C@@H](NC(=O)[C@@H]1CCCN1C(=O)[C@H](Cc1c[nH]c2ccccc12)NC(=O)[C@H](CO)NC(=O)[C@H](CC(C)C)NC(=O)CN)[C@@H](C)O)C(C)C)C(=O)N[C@@H](CC(C)C)C(=O)N[C@@H](CC(C)C)C(=O)N[C@@H](CC(=O)O)C(=O)N[C@@H](CC(C)C)C(=O)N[C@@H](Cc1ccc(O)cc1)C(=O)N[C@@H](CC(C)C)C(=O)N[C@@H](CC(=O)O)C(=O)N[C@@H](C)C(=O)N1CCC[C@H]1C(=O)NCC(=O)N[C@H](C(=O)N[C@@H](CSCC(=O)Nc1ccc2c(c1)C(=O)OC21c2ccc(O)cc2Oc2cc(O)ccc21)C(N)=O)C(C)C
notes: also called PPKID5 (unphosphorylated)
B5 was tested, and the Kd (HisKIX [1]) was 6.6 µM.

GLSPYTEWGDDAPVRRLSFFYILLDLYLDAPGVC(acetamidofluorescein)-NH2 (designed binder) [PPKID7^U] was tested, and the Kd (HisKIX [1]) was 2.3 µM.

B6: KID-B^P (peptide)
peptide: RRP[pS]YRKILNDLSSDAPGVC(acetamidofluorescein)-NH2
notes: also called KID-B (phosphorylated); CREB KID residues 130-148
For B6, the Kd (HisKIX [1]) was 51.6 µM.
